Data reported in paper doi:10.1101/2021.03.04.433768 (bioRxiv, 2021).

Target: HexaPro, a prefusion construct of the SARS-CoV-2 spike (SARS-CoV-2, Wuhan-Hu-1 reference spike …, UniProt P0DTC2, stabilised)
Test: negative-stain EM

B1: Nb56 (llama nanobody, monomer) (VHH)
VHH: QVQLQESGGGLVQAGDSLRLSCVASERTFRRYGMGWFRQAPGKEREFVAAVDRSHTKTGYADFVKGRFTISTNYENMVYLQMNSLKPEDTAVYYCAAPSYEKGSDPTSWNTDRGYDYWGQGTQVTVSS
binding result: binds
